Reference: PMC2727048

What was measured:
Details in all cases: remark: other sources report otherwise
[1] = target: T1, HBV core protein of virion-derived mature capsids (Mat-C) (Hepatitis B virus), P03146; experiment: Nycodenz gradient ultracentrifugation
T1 chain: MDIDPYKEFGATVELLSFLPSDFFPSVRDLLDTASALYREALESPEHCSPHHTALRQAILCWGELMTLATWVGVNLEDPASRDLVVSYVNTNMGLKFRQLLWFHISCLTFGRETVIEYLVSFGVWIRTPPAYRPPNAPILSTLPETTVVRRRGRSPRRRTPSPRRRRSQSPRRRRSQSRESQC

[2] = target: T1, HBV core protein of virion-derived …; experiment: Nycodenz gradient ultracentrifugation; 50 ng P-Mat-C after transport reaction with 4×10^6 digitonin-permeabilized HuH-7 cells and rabbit reticulocyte lysate, lysate of the cells on the gradient; controls with WGA, cells treated with RNase A
[3] = target: T2, HBV core protein of E. coli-derived "recombinant" capsids (rC) (Hepatitis B virus), P03146; experiment: Nycodenz gradient ultracentrifugation
T2 chain: T1 chain

B1: HBV core protein of virion-derived mature capsids (Mat-C), P03146 1-183 (natural protein)
chain: T1 chain
- percent of the radioactivity in the four major (capsid) fractions [1]: 98%
- percent of 32P core proteins in the particle fractions [2]: 99%

B2: HBV core protein of E. coli-derived "recombinant" capsids (rC), P03146 1-183 (natural protein)
chain: T1 chain
- percent of the radioactivity in the three major (capsid) fractions [3]: 91%
